Columns and labels:
[1] = Storage stability at different pH values, residual DON transformation activity; format: biochemical; conditions: storage at 30° C.
Description: (§1) To determine the transformation of DON to epi-THS by Akr I-III, described herein, the following assay was performed. An assay buffer was prepared containing 40 ppm DON, 1 mM NADPH in Teorell Stenhagen (TS) buffer, pH 6.0 (Östling and Virtama, Acta Physiologica Scandinavica, 1946, 11:4, 289-293). Tubes containing the assay buffer were transferred in a heating block at 30° C. The reaction was started by addition of Akr I-III to a final concentration of 200 nM in a final reaction volume of 200 μL. Samples were taken before reaction start, and 2, 5, 10, 15 and 20 min after reaction start. DON transformation reactions in these samples were stopped by mixing with absolute methanol at a 1:2 ratio, followed by a 1:100 dilution with 40% methanol. The concentrations of DON and epi-THS in the samples were determined with liquid chromatography-mass spectrometry (LC-MS) on a Sciex 5500 triple quadrupole mass spectrometer coupled to Agilent 1290 series UHPLC system, using the following MS parameters: Acquisition duration: 4 min; Scan Type: MRM (MRM); Polarity: Negative; Ion Source: Turbo Spray.
The storage stability of Akr I-III at different pH values was tested by incubating 1 μM enzyme in TS buffer solutions with a pH of 3.0-10.0 for 4 h at 30° C. in standard 1.5 ml Eppendorf tubes. Every hour, a DON transformation assay was conducted as described in Example 3. The starting activity at time 0 min was set to 100% and the relative residual activities were determined throughout the incubation. For the DON transformation assays, 80 μl of the storage solution were added to an assay reaction with a final volume of 400 μl, which corresponds to a 1:5 dilution of the storage solution. Akr I retained more than 93% activity during 4 hours at 30° C. from pH 4.0-10.0. Akr II retained 30% to 93% activity during 4 hours at 30° C. from pH […] retained 27% to 85% activity during 4 hours at 30° C. from pH 4.0-9.0. Akr I-III retained more than 40% of their activity for 4 hours at 30° C. from pH 4.0 to pH 8.0.

[2] = format: biochemical; conditions: pH 2 to pH 10 tested, 30° C.
Description: as §1
For LC, eluent A was 5% methanol, 94.9% water (ultrapure), 0.1% acetic acid, and eluent B was 99.9% methanol, 0.1% acetic acid, using a Phenomenex Kinetex 2.6 μm biphenyl 150×2.1 mm column, an injection volume of 1 μL and the protocol shown in Table 3.
By applying the DON transformation assay basically as described in Example 3, but at pH values ranging from pH 2 to pH 10, the pH optima for DON degradation of Akr I-III (SEQ ID NOs: 1-3) were determined. Akr I and Akr II reached maximum activities at pH 6.0, Akr III at pH 6.5.
By applying the DON transformation assay basically as described in Example 3, but at different temperatures ranging from 14.9° C. to 55.7° C., the temperature optima for the DON degradation activities of Akr I-III were determined. Akr I maximum activity was shown at approximately 35° C., Akr II at approximately 31° C., and Akr III at temperatures from approximately 28° C. to 33° C. (see FIG. 4). […] For Akr I even at temperatures below 20° C.

B1: Akr III: artificial amino acid sequence, variant of a wild type aldo-keto reductase (protein)
chain: MRTTEIAQGLKVSNLCIGAGPLGGMPTAFGYDVSEERGIATVQAVFDSPINFMDTSSEYGGSEARIGKVIREGRMPKGFVISSKADAEGEGVGRRGDFSAKQVRASFELSLERLGLTHLDVYFLHDPEKFPFEQVMARGGAMEELLRLKDEGLVGLVGVAGGDVLEMARYVDTGSLDILLNYGRYTILDRSADSLITKVSDAGMAFLNAGPYASGLLAAPRGGSAWYQYAPPDATALQAVDQLHELCESFDVSLRSVALQFSMRDPRITSTVVGLSRPERVRALLDDEAAEIPAELWEQLPAPLNGDIVLPR
modifications: ArkIII
Relative DON-transformation activity ([1]; pH 3.0, 0 h (starting activity set to 100%)): 100.0% | Relative DON-transformation activity ([1]; pH 3.0, 1 h): 13.5% | Relative DON-transformation activity ([1]; pH 3.0, 2 h): 19.3% | Relative DON-transformation activity ([1]; pH 3.0, 3 h): 0.0% | Relative DON-transformation activity ([1]; pH 3.0, 4 h): 0.0% | Relative DON-transformation activity ([1]; pH 4.0, 0 h (starting activity set to 100%)): 100.0% | Relative DON-transformation activity ([1]; pH 4.0, 1 h): 95.1% | Relative DON-transformation activity ([1]; pH 4.0, 2 h): 84.4% | Relative DON-transformation activity ([1]; pH 4.0, 3 h): 74.8% | Relative DON-transformation activity ([1]; pH 4.0, 4 h): 57.7% | Relative DON-transformation activity ([1]; pH 5.0, 0 h (starting activity set to 100%)): 100.0% | Relative DON-transformation activity ([1]; pH 5.0, 1 h): 97.7% | Relative DON-transformation activity ([1]; pH 5.0, 2 h): 96.3% | Relative DON-transformation activity ([1]; pH 5.0, 3 h): 90.7% | Relative DON-transformation activity ([1]; pH 5.0, 4 h): 85.2% | Relative DON-transformation activity ([1]; pH 6.0, 0 h (starting activity set to 100%)): 100.0% | Relative DON-transformation activity ([1]; pH 6.0, 1 h): 97.8% | Relative DON-transformation activity ([1]; pH 6.0, 2 h): 94.9% | Relative DON-transformation activity ([1]; pH 6.0, 3 h): 93.1% | Relative DON-transformation activity ([1]; pH 6.0, 4 h): 78.9% | Relative DON-transformation activity ([1]; pH 7.0.0, 0 h (starting activity set to 100%)): 100.0% | Relative DON-transformation activity ([1]; pH 7.0.0, 1 h): 93.0% | Relative DON-transformation activity ([1]; pH 7.0.0, 2 h): 91.3% | Relative DON-transformation activity ([1]; pH 7.0.0, 3 h): 85.1% | Relative DON-transformation activity ([1]; pH 7.0.0, 4 h): 74.0% | Relative DON-transformation activity ([1]; pH 8.0, 0 h (starting activity set to 100%)): 100.0% | Relative DON-transformation activity ([1]; pH 8.0, 1 h): 94.2% | Relative DON-transformation activity ([1]; pH 8.0, 2 h): 77.9% | Relative DON-transformation activity ([1]; pH 8.0, 3 h): 69.0% | Relative DON-transformation activity ([1]; pH 8.0, 4 h): 57.6% | Relative DON-transformation activity ([1]; pH 9.0.0, 0 h (starting activity set to 100%)): 100.0% | Relative DON-transformation activity ([1]; pH 9.0.0, 1 h): 76.3% | Relative DON-transformation activity ([1]; pH 9.0.0, 2 h): 61.3% | Relative DON-transformation activity ([1]; pH 9.0.0, 3 h): 54.1% | Relative DON-transformation activity ([1]; pH 9.0.0, 4 h): 27.4% | Relative DON-transformation activity ([1]; pH 10.0, 0 h (starting activity set to 100%)): 100.0% | Relative DON-transformation activity ([1]; pH 10.0, 1 h): 47.0% | Relative DON-transformation activity ([1]; pH 10.0, 2 h): 27.1% | Relative DON-transformation activity ([1]; pH 10.0, 3 h): 17.0% | Relative DON-transformation activity ([1]; pH 10.0, 4 h): 15.4% | pH of maximum DON degradation activity (pH optimum) [2]: 6.5

Source: patent US20230380451A1, “MEANS AND METHODS TO DETOXIFY MYCOTOXINS” (priority 2020, published 2023)
